According to publication PMC3334620:

Legend:
Settings in all cases: 200 nM
[1] = target: T1, Vhr1 (Saccharomyces cerevisiae) (UniProt P40522)
T1 sequence: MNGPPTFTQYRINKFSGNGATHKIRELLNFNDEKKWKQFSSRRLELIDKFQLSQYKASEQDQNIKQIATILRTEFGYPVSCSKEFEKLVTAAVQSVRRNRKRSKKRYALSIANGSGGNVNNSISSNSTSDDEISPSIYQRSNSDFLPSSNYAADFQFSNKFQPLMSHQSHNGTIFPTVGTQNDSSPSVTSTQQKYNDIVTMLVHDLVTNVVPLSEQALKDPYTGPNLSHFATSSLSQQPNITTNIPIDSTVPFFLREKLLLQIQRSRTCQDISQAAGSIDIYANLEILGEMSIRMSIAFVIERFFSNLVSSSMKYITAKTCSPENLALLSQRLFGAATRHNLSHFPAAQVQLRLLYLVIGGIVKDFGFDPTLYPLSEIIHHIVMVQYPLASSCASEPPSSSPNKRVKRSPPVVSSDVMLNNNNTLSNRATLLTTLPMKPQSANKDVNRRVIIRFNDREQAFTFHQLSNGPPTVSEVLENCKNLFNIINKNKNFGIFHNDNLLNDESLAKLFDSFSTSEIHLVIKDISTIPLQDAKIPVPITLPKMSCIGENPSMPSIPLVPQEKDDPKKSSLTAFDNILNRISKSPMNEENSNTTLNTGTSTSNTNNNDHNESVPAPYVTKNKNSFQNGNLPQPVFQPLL

[2] = target: T2, Vhr2 (Saccharomyces cerevisiae) (UniProt P40041)
T2 sequence: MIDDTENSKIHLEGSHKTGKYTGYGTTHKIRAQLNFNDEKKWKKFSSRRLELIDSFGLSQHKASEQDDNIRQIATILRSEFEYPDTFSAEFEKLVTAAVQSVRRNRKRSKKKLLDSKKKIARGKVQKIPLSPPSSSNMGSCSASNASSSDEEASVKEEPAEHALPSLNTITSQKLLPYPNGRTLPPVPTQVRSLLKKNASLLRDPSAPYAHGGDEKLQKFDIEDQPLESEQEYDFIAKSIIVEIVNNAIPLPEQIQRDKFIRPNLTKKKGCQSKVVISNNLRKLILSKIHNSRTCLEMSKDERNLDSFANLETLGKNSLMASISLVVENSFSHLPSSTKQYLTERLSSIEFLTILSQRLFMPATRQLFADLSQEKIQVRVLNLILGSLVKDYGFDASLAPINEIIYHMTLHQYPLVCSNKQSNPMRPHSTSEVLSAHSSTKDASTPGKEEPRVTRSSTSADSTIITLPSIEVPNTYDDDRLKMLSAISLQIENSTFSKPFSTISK

[3] = target: T3, Ybr033w (Saccharomyces cerevisiae) (UniProt P38073)
T3 sequence: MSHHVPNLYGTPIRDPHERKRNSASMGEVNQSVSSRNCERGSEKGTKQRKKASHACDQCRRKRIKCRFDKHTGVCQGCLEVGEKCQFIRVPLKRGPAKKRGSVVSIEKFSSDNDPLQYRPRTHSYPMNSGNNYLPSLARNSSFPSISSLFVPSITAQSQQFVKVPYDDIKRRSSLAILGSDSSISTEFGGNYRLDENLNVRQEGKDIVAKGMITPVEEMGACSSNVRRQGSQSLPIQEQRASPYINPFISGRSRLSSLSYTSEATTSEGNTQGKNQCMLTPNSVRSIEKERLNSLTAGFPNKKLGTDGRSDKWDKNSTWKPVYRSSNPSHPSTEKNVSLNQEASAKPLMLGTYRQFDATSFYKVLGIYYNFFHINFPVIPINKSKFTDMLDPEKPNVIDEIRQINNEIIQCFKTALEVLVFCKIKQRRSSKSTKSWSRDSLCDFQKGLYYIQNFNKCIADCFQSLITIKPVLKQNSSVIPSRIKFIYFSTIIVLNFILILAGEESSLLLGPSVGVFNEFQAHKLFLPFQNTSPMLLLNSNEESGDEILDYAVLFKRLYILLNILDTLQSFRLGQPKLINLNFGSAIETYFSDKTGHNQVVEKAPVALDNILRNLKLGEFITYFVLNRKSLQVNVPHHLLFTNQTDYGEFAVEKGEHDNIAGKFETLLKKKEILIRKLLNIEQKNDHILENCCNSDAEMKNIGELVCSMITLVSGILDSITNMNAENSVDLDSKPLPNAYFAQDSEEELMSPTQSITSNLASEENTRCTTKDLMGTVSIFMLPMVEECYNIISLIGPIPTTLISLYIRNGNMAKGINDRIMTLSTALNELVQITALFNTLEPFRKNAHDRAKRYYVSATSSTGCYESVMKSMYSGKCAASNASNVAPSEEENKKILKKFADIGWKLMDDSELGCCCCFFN

[4] = target: T4, Zap1 (Saccharomyces cerevisiae) (UniProt P47043)
T4 sequence: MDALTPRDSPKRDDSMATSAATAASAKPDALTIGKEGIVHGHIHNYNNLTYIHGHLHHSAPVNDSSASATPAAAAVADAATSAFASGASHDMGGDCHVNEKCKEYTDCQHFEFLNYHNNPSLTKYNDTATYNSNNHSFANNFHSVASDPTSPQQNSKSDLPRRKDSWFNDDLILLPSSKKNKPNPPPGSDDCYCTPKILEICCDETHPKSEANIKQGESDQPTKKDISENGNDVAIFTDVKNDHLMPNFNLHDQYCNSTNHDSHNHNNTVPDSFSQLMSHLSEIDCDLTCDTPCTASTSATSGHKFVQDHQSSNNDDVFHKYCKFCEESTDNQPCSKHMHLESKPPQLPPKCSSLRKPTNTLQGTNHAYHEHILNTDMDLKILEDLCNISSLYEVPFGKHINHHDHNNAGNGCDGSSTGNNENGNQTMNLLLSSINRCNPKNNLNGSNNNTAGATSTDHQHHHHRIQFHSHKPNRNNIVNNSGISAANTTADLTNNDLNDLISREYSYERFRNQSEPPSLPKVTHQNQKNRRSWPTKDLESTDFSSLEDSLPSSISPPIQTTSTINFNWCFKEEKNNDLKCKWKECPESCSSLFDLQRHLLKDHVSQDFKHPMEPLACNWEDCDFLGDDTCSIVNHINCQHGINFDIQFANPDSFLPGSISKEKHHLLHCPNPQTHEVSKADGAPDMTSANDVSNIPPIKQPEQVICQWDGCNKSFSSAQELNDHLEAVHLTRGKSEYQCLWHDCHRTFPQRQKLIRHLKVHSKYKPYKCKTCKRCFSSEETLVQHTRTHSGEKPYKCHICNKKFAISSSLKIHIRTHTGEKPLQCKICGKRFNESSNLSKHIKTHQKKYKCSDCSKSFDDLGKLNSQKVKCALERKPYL

Row | Sequence | binding signal (PBM E-score (-0.5 to 0.5)) [1] | binding signal (PBM E-score (-0.5 to 0.5)) [2] | binding signal (PBM E-score (-0.5 to 0.5)) [3] | binding signal (PBM E-score (-0.5 to 0.5)) [4]
1 | GTGACTCA (double strand) [8-mer GTGACTCA] | 0.496 | 0.498 |  | 
2 | GATGACTA (double strand) [8-mer GATGACTA] |  | 0.495 |  | 
3 | CGGAACAA (double strand) [8-mer CGGAACAA] |  |  | 0.491 | 
4 | AGGGGTTA (double strand) [8-mer AGGGGTTA] |  |  |  | 0.479
5 | CAGGGTTA (double strand) [8-mer CAGGGTTA] |  |  |  | 0.477
6 | AAGGGTTA (double strand) [8-mer AAGGGTTA] |  |  |  | 0.489
7 | GAGTCATA (double strand) [8-mer GAGTCATA] | 0.484 | 0.495 |  | 
8 | GAGTCACC (double strand) [8-mer GAGTCACC] | 0.491 | 0.496 |  | 
9 | ATTGTTCC (double strand) [8-mer ATTGTTCC] |  |  | 0.484 | 
10 | CATAACCC (double strand) [8-mer CATAACCC] |  |  |  | 0.482
11 | CGGATTAA (double strand) [8-mer CGGATTAA] |  |  | 0.482 | 
12 | CATGACTC (double strand) [8-mer CATGACTC] | 0.485 | 0.494 |  | 
13 | ATAACCCC (double strand) [8-mer ATAACCCC] |  |  |  | 0.476
14 | AAAGGTTA (double strand) [8-mer AAAGGTTA] |  |  |  | 0.479
15 | GGTTATGA (double strand) [8-mer GGTTATGA] |  |  |  | 0.48
16 | AATGTTCC (double strand) [8-mer AATGTTCC] |  |  | 0.471 | 
17 | CTGACTCA (double strand) [8-mer CTGACTCA] | 0.49 | 0.494 |  | 
18 | GAGTCATC (double strand) [8-mer GAGTCATC] | 0.492 | 0.497 |  | 
19 | AGTGACTC (double strand) [8-mer AGTGACTC] | 0.481 |  |  | 
20 | ATGACTCC (double strand) [8-mer ATGACTCC] | 0.494 | 0.493 |  | 
21 | ATTTTTCC (double strand) [8-mer ATTTTTCC] |  |  | 0.486 | 
22 | ATGAGTCA (double strand) [8-mer ATGAGTCA] | 0.492 | 0.498 |  | 
23 | CGGATCAA (double strand) [8-mer CGGATCAA] |  |  | 0.472 | 
24 | CCATAACC (double strand) [8-mer CCATAACC] |  |  |  | 0.479
25 | CTGAGTCA (double strand) [8-mer CTGAGTCA] | 0.489 | 0.496 |  | 

Row | Sequence | binding signal (PBM E-score (-0.5 to 0.5)) [1] | binding signal (PBM E-score (-0.5 to 0.5)) [2] | binding signal (PBM E-score (-0.5 to 0.5)) [3] | binding signal (PBM E-score (-0.5 to 0.5)) [4]
26 | ATTATTCC (double strand) [8-mer ATTATTCC] |  |  | 0.479 | 
27 | AGGGTTAT (double strand) [8-mer AGGGTTAT] |  |  |  | 0.49
28 | ATGACTCA (double strand) [8-mer ATGACTCA] | 0.495 | 0.499 |  | 
29 | AATGACTC (double strand) [8-mer AATGACTC] |  | 0.495 |  | 
30 | CGTAACCC (double strand) [8-mer CGTAACCC] |  |  |  | 0.482
31 | AAGGTTAT (double strand) [8-mer AAGGTTAT] |  |  |  | 0.478
32 | CGGAAAAA (double strand) [8-mer CGGAAAAA] |  |  | 0.495 | 
33 | AGGTTACC (double strand) [8-mer AGGTTACC] |  |  |  | 0.476
34 | ATGACTAA (double strand) [8-mer ATGACTAA] |  | 0.494 |  | 
35 | ATTAATCC (double strand) [8-mer ATTAATCC] |  |  | 0.486 | 
36 | CGGATAAA (double strand) [8-mer CGGATAAA] |  |  | 0.488 | 
37 | GGAAAAAA (double strand) [8-mer GGAAAAAA] |  |  | 0.472 | 
38 | CGGAGTCA (double strand) [8-mer CGGAGTCA] | 0.485 |  |  | 
39 | ATAACCTC (double strand) [8-mer ATAACCTC] |  |  |  | 0.487
40 | GGAAAAAC (double strand) [8-mer GGAAAAAC] |  |  | 0.476 | 
41 | GGAGTCAC (double strand) [8-mer GGAGTCAC] | 0.485 |  |  | 
42 | ATTTTCCG (double strand) [8-mer ATTTTCCG] |  |  | 0.472 | 
43 | GTGAGTCA (double strand) [8-mer GTGAGTCA] | 0.494 | 0.498 |  | 
44 | GAGTCACA (double strand) [8-mer GAGTCACA] | 0.487 |  |  | 
45 | AGGGTTAC (double strand) [8-mer AGGGTTAC] |  |  |  | 0.484
46 | AATTATCC (double strand) [8-mer AATTATCC] |  |  | 0.471 | 
47 | ATGACTAC (double strand) [8-mer ATGACTAC] |  | 0.494 |  | 
48 | AGAGGTTA (double strand) [8-mer AGAGGTTA] |  |  |  | 0.476
49 | ATTTATCC (double strand) [8-mer ATTTATCC] |  |  | 0.485 | 
